The DeepSol protein solubility set

Test: soluble on expression in E. coli; label from the status in PepcDB or PDB records

Soluble on expression in E. coli, not soluble:
MAVHTDPFKKYLYKIGNRTSGSDKHIRKFKTFLTISAYSNILVISMIIDQLRIQKNIPDEEFDAIYPFEIRELSERHWTSVFVAKTAADFLCNQRPVKVLDIGSGAGKFCFVGAALHPSSQFHGIDIRENFIQLSNNLKEQYAVANVSFFQQDALEMDLTGYGGIYFFNSFQEKIDPTSVIDHNSKVSVEQYIQYTNHIFNELNKVPAGTKLVTYYSEDFCVPGSFRLLATHFNGELKFYLKEMEPDESDEQLNQQDISEHIDRHTFLSE
MTDTAEKYEAVVVGCGPGGAAAAATLARNGVETLVLERGVDAGSKNVSGGLIYAEESAPYTIDGLFPDFREEAAERPVTENLIHNIAGDRVKSFDIGDLHHHDTAWADAVLRRKMDSWLAQQVHERTRETGGGLLTEVHVTGLLRERGEIVGVTTEELDPIKADIIVAADGVNSELARDAGLMDWDEPEEWFQGVKAVVDMEPEVINDRFDVASDDGAAHLFSGDLFDGVRGGGFLYTNESSLSIGTVFHLDSIAEERAEPHELLDSLLTHPLMAQWLGDEYDEREYSAKLVPDSKKAAHPSPHEDRLVLVGDAAGQMQAQGPIIKGMNHAVTAGALAAEAFADARARGDPSQAGKLYEKKLHDEGVMDKLRPTGYRVFGQLGELGPVDNLSNAIAESAVGRFGVRAAAGLLERAYSSPRLVSMIPDTKLPYVTLPTVIAEELGEPVTDENTVSPPDLGDRIGDLTYDVGDPHIELVDKSFEASGTAVTACPVSAEDFGGGCYRDEMVQTNGSEEHLVSLDTQPCVECGTCAIVADTEWEHPAGGKGVEFNQGLEHHHHHH
MGSDKIHHHHHHMMDFYIKQIIIHQFSPNDTELVLSDTPLTLTPRIDDYFRKKLSKVFSDEAKRGYFGEDNVFMSHLQDDLYVSSCQIAQLWKEEFVISEDQKTNDLVFIQFDKDGMEHFAFLRISLKEQFAHVSENQEQPITITQNNLPSAAQTPDEALVVNKSSKQYYLIEKRIKHNGSFANYFSENLLQVQPEQSVKKSIKMVEQTAQKIAENFNKDDFSFQSKMKSAIYKNLEEEQELSPEKLADQLFDDNLTARLTFVDELKDAIPGPVQVSDIDHSRQIKKLENQKLSLSNGIELIVPNNVYQDAESVEFIQNPDGTYSILIKNIQDIQNK
PELADPTPYDIFGIPKAGSGNPKLDKKSLKKKYHRYVKLYHPDHSDNIQIFSSEKVTNSDSKSPLLLTSSEKLHRFKVISQAYDILCDPKKKIVYDTTRQGW
MGSDKIHHHHHHMDPRLLEYYNRELSYLRETGAEFAARHPKVAARLGMQGTDIADPYVERMVEAFSFLTARTQLKIDAEFPRFTQRLLEVVSPNYVTPTPSMSVAQLHPDTEEGDLAKGFTVPRDTAFFSAIPEGESTACQFRSSQDVTLWPLAIEEARLTAAPPDMPALHRYLPANIHVAGALRITLRTFGELTFSQLAGLDRLPFYLCGEERTASHLLELLHTSAIAPLAGIPGHFDGALDVNLQQPVMYEGLEPDQGLLPLAWNVFHGHNLLHEYFACPERFYFFTPTGLSAGLQKIDGGVAEIVILLNRLPPDWLIHQTNAAQFSLFCTPVINLFPRVTARIDVTHSTTEQHLVVDRTHPLDYEVFSVQEVEGLETDTTRKMAFRPLYHTRNNDEGNHGRYFSLRREPRRLSENARRYGTRTPYTGSEVFLSLVDQYEAPYPENLRHITITAMVTNRDLPCLIARNGRDDLTVDAAIPVAGVGLIRPPRSPQPPMAEREMAWRLIRQLSFNYLPLADLDHRTGGQALRDLLNLFIPAHDSPQSRQVRSLIGCKTTPVTRRLPGSGLLVYGRGVSCELTVDEEGFSGISPYLFGLVLEHYIARHVSINTFSQMTLHSMQRGKIMTWPVRAGQRGSV
MGSDKIHHHHHHMHQTLATSRKTSNACNVLALCTRDNPAILTIAHRGFWTATAENSLASVRAAVAAGVEMIEIDTQATADGRLVVIHDETLDRTTTGKGTVSALPFEVVRAAKLKAGAGGDGADVTDECVPTLEEVLEEARGRITVNIDTKFTRDLPQVMETVLRLGVEDQVLVKTDVDPEAERFEVLGSHWFGRIPHMPMFPVRKGKFAEDLRRIEALKAPMIEVKFTDIADLAEGRAEMERQNIRLWINSLDVSHCLDFNDTRALSNPEAVWGALAEAGTGAIQTDEVEAFTAWLKAGAGETGRAWTR
MANEQVLTAEQVLEKASQYLVDEDIELVARAYEYARDAHSEQYRKSGEPYIIHPIQVAGVLVDLHMDPATVSAGFLHDVVEDTEITLEDIEREFNKEIAMLVDGVTKLGKIKYKSHEQQQAENHRKMFIAMAQDIRVILIKLADRLHNMRTLKHLPQEKQRRIANETLEIFAPLAHRLGISTIKWELEDTSLRYLNPQQYYRIVNLMKRKRAEREEYLDEVMTGIREKLDEVAIQPEISGRPKHIYSIYRKMALQNKQFNEIYDLLAVRVVVNSIKDCYAVLGIIHTCWKPMPGRFKDYIAMPKANLYQSLHTTVIGPKGDPLEVQIRTKEMHEIAEFGIAAHWAYKEGKTAETTGTLEKKLTWFRQILEWQNEASNAEEFMESLKIDLFSDMVFVFTPKGDVMELPLGSVPIDFAYRVYSEIGNKTIGAKVNGKMVTLDYKLKTGDIIEILTSKHSYGPSQDWVKLAQTSHAKNKIRQFFKKQRRDENIEKGRELVEKEVRSLEYEMKEVLAPDNLKRVAEKFNFANEEDMFAAVGYNGITASQIVTRLTDKFRKQREEEEIVEVKEVRKPMKIRKWDSGVKVSGADNLLIRLSKCCNPVPGDDIVGYITKGRGVSIHRRDCVNVHTEEAIERLLEVEWEGSPEKEIEYNVDIEISGYDRRGLLNEVLQAVTETKTYISAVSGRSDRNKMATINMSISIRNLQHLKKVVERIKRVPEIYAVRRMMH
MAHHHHHHMRVPSLPIIIDEFPALAGSRSHSGSGSGSELFFLTHFHTDHMKGLSSAWTAGLIITGTITRQLLLNKFEGLRGRVLGLPFWCRTPVLSAAGAAHSETDSTTATAVPVVHVTLLPAFHIPGSAMIYIETPSGVTYLHTGDFKYTEAAAQMSSLRTFFQSHRVDHLYLDDTWLHLGHTELKSWPALTESPLVGHRGVGIANSGIRVLSKLLDADQVEEAIEAIGRRMDYQRQLHAQWVQQQSQCDSNGTAEALTPSSSSSSASAELSDARLPFIVRVYLHNQFGKELLIQQLAARLRTRALIDDARYARLLTVVEALEEERDDLEAFEGADPARLDGAAPPLSAEELAWRASGGEAARYPYDLNCFVSCSQAQQQKQQQLWARWRYDRGAMSPQQPQPPADHSVKRSCGPPLIEVVRNRASIEPATLQAASAARGGTPYYGVVISGWARLQSQTHGPAASGQVWQVPTTLHSTPQEIVDFVALLRPLSVTPLHYRPSRGEVVMQRLGPYLRVPFVNNHDTGCGATTAATAGRDAVALRGGVVRWMPYLPAYLLLSQMGGSDSRSGLGTSTLLGMLGARDAAAVCDNGLDALEEKPPRGFRIRPAGLPLPSSKAAVAASRSGGEAPGGCDSHTAAITASYFFAPSPTTTTSLPAQGMADVSGKATNPTDTSVSSRVRADGLRISTLLPSWRLSHLTQSYLSTQQSGGKRERVDVEMDGQSMVAHRAERHAATATKIESGERAAKAANDHDKDCPAVLLSSSATTGLLSLSDIADNVLA

Soluble on expression in E. coli, soluble:
MDKFIKQLDPNLDYINHEINDGKCYITVASNRKEVTCPFCGQSSSRIHSTYNRIFQDLPIQGNKVFIIIRNRKMFCDNHDCSHTTFAERFDFISYKAKKTRRLEDEIVRLSINCSSVAASKALKENVVDIGKSTVCNLLKKETLVVDKKTVTVVCIDDFAIKKRKSYGTIMIDIFTHQILDMIDSRDYETVCEWLKTYPNLSVISRDGSVIYNNAIANAHPEALQISDRFHLLKNLTSYITEYLKKRLKPQVLIQAVSQETKEIKTIRQADENRKLTLKEKYEKIKQLLLEGKCKTEICRSLNMDIRAYDKLMAMTAEKREKSFQTKKMIIHEERVKQKMERVNEVRELKGIGLSNREISRRTGLNRKTVSRYLDENFNPVHAAYGKKRNGKLTPYIKAIDEYLEKGIMGSYIEEKIREMGYEGSSSTVRDYITDWKKRRKKYYDKSREDGTKTETIKRENILKLLYQPIEKSKNN
